{
  "source": "patent US8465945B2",
  "about": "“Method for production and use of mite group 1 proteins” (Merck Patent GmbH, priority 1999, dated 2013)",
  "molecules": {"B1": {"name": "PDerf1223b: Recombinant mature form of Der f 1 (SEQ ID NO:32) expressed by P. pastoris from nDerf1669b (protein, listed as Dermatophagoides farinae)", "chain": "TSACRINSVNVPSELDLRSLRTVTPIRMQGGCGSCWAFSGVAATESAYLAYRNTSLDLSEQELVDCASQHGCHGDTIPRGIEYIQQNGVVEERSYPYVAREQRCRRPNSQHYGISNYCQIYPPDVKQIREALTQTHTAIAVIIGIKDLRAFQHYDGRTIIQHDNGYQPNYHAVNIVGYGSTQGVDYWIVRNSWDTTWGDSGYGYFQAGNNLMMIEQYPYVVIM"}},
  "tested_on": "IgE from mite-allergic or normal human sera",
  "experiment": "ELISA, binding of IgE from human sera to coated Der f 1 proteins or mite extracts, detected with FcεR1α-biotin",
  "conditions": "Table 3, PDerf1303b preparation number A166-26, PDerf1223b preparation 1000-7",
  "data": [
    {"molecule": "B1", "values": [
      {"measurement": "OD, bound IgE", "setting": "sera 429", "result": 63, "unit": "OD multiplied by 1000"},
      {"measurement": "OD, bound IgE", "setting": "sera 1916", "result": 0, "unit": "OD multiplied by 1000"},
      {"measurement": "OD, bound IgE", "setting": "sera 3848", "result": 1253, "unit": "OD multiplied by 1000"},
      {"measurement": "OD, bound IgE", "setting": "sera 3958", "result": 1224, "unit": "OD multiplied by 1000"},
      {"measurement": "OD, bound IgE", "setting": "sera 3960", "result": 634, "unit": "OD multiplied by 1000"},
      {"measurement": "OD, bound IgE", "setting": "sera 3961", "result": 301, "unit": "OD multiplied by 1000"},
      {"measurement": "OD, bound IgE", "setting": "sera 3987", "result": 1078, "unit": "OD multiplied by 1000"},
      {"measurement": "OD, bound IgE", "setting": "sera 4467", "result": 432, "unit": "OD multiplied by 1000"},
      {"measurement": "OD, bound IgE", "setting": "sera 5207", "result": 1096, "unit": "OD multiplied by 1000"},
      {"measurement": "OD, bound IgE", "setting": "sera human pool", "result": 774, "unit": "OD multiplied by 1000"}
    ]}
  ]
}
